These results are taken from PMC4520771 (Journal of structural biology, 2015).

This data set concerns the molecule itself. The experiment in a line: SEC. For orientation: Size exclusion chromatography separates by hydrodynamic size, large species first.

B1: EspB_(1-338), N-terminal EspB fragment (domain or fragment)
chain: MTQSQTVTVDQQEILNRANEVEAPMADPPTDVPITPCELTAAKNAAQQLVLSADNMREYLAAGAKERQRLATSLRNAAKAYGEVDEEAATALDNDGEGTVQAESAGAVGGDSSAELTDTPRVATAGEPNFMDLKEAARKLETGDQGASLAHFADGWNTFNLTLQGDVKRFRGFDNWEGDAATACEASLDQQRQWILHMAKLSAAMAKQAQYVAQLHVWARREHPTYEDIVGLERLYAENPSARDQILPVYAEYQQRSEKVLTEYNNKAALEPVNPPKPPPAIKIDPPPPPQEQGLIPGFLMPPSDGSGVTPGTGMPAAPMVPPTGSPGGGLPADTAAQ
In the case of B1, the binding result is given as “binds”.
